A short description of the data set: soluble fraction after stress (log2 fold change); higher = more stays soluble; pooled small domains, quantitative proteomics. The following applies: stress: 50 degC. In a few lines: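 The measure of aggregation propensity here is the base-two logarithm of the fold change in the soluble amount of each protein after stress. A higher value means more of that protein stays in solution. Stress was applied at 50°C to pooled libraries of small protein domains, read out by high-throughput quantitative proteomics.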
For the sequence “HMPQNVSVPDVTNMTQAEAESKLKEKNLAVGNIIPELSTTVEKDKVTRTNPESGSNVRKNSKVDIYVSQG”, the “soluble fraction (log2)” value was found to be 0.0455.
The value for “HMLAYQRTYEKILEDLRNDVYPVNSLLPPEPKLEEIYHVSRTTVRRAIAQLADEGYVKVKQGYGTVVLKN” was -0.339; that for “HMNTGTTISYSDFRDRVASGTVKEVQISDDRITGVLKNDETFNTVPVGNDSGLTKLLDDNGVTYSGTP” was 0.174.
Regarding “HMGRPTLEQLLDRAQAMGVPRERYAAYADRRWGRGWRVNPHGRGRAWDELDRYRNDPAGYLDKIEVELNQL”, the “soluble fraction (log2)” value was -0.101.
Regarding “HMVSIGSQVAKRRRELRLTQQNLAEKMGVSFQAISSWEREEFLPDINKLQKLAAILNTKISYLLEE”, the “soluble fraction (log2)” value is -1.3.
Turning to “HMSNWYKNNETDQIWWKDTPDSVGEWLFSFDKKQVFNMFADYPHNLTPEQKKIFDEENPEWSDRP”, the “soluble fraction (log2)” value is -0.328.
With “HMKKQLKSEAVADELRRKILSGGFPDKRLPRKDELTEYFQVSQKTVEAALKMLTAEGLIRGVKGTGIFVNG”, the “soluble fraction (log2)” value is -0.0396.
The value for “HMEDINAVLAENLRRLRESRRLSLDAVARLTGVSKSMLGQIERGEVNPTVSTMWKIAGGLKVNFTALFRRE” was -1.47; that for “HMNPGHAERGKEIVEVFLRNNGELSMREIAEKSNITITQARRRVNKLLDQGIVEATAPVQSRNRKYRIK” was 0.134.
Turning to “HMDGASLLDIDGDGKVTPTIDGLLLMRWQFGTRGAALIGGISFPAGALRTTVNAIELHMRRLSETT”, the “soluble fraction (log2)” value was -0.844.
With “HMKDNPNETFERIAGKITRTLRSGPVRIQQLDLLFSESAGKVVDVLRAMAENGEVLIKDDTIQLNGNN”, the “soluble fraction (log2)” value came out at 0.0379.
As to “HMQYDSYTVEEPAKLLDWLLAHLRQSRTKIKATLQGHGIKVNGKTVTQFDYPLEPGMKIRVSLTK”, the “soluble fraction (log2)” value is 0.159.
The value for “HMGEIHALIPGLVSRLFVKPGDRVENGQGLLILEAMKMENEIDSPISGVVGKIYIKAGDKVEKGELIMEIN” was -0.46; that for “HMNSISDSELKALIKNNYLKFLKRIASDEEIEYHFNQIKNKTILLDELDSIFQNSQEYKDLVEHNNKIQN” was -0.0724.
With “HMNPMRYLVVPSQETETWKEYLVSKEWLERKYRIETEGDNRAIPLSNLFPKIVPIELSNLEIIEKEAFS”, the “soluble fraction (log2)” value was -0.24.
The figure for “HMYPEETVNKILDVSMQLFLEKGYEHTSIQDIVNHLGGLSKGAIYHHFKSKEDILDGVMNKLYQNN” is -0.816; for “HMDAYDEVTTLSQMVASGKNTTVAHLKHLKEYHQTDYLRQAVEWLLSNRKNVSFSVDEVMQEVHN” it is -0.0339; for “HMSIQELMNSKDLSSFKVEMLSDEDIAKYKGLLQNSGLTEAQAEQMALQRGLPSSELLKLKARLSGI” it is 0.128.
The figure for “HMEDIQPSVIFQNNMIDGFKKFGVSFLQNRRNVNVNTLNGLASAGTYPKWQQLLVNKISYIDMLLSTGG” is 0.0785; for “HMGSVHDAATDRIREMILGGQFEPGERLRQDDLATSLGVSTMPVREALRQLQAEGLVVFYPRKGAVVAR” it is 0.142; for “HMGIVTMPGQGSKMRFDFDATGDLPSSTSWRGMFAYANNTKRAYVSTGTTMGGYNGWRQLIAMDEYGNYQT” it is -0.0345.
The value for “HMVDQVDKDRFLEALTQLGGSAGNVRLRETLQWEEEVYVIIKDALVKSGTILTGRGRGGSVLLASA” was -1.12; that for “HMTRVDALDQLAAIRFSSHIFAEDQDLRMVVVDGQRIGEGDIVRDEIRLEQITETGVIFEYQGERFPIDV” was -1.42.
With “HMNPIEAQIEELKNKDQKTAYQALKHLLAISETRAEVSYYFDRFVALLQDPQSYVRTRGLLLIGA”, the “soluble fraction (log2)” value is 0.271.
“HMNTEEITYSRFQQMLEAGEISQVSIESNRILILPSEETGIEKVLYTGIINDPGLVERLNSAGVEFRAPIE”: the “soluble fraction (log2)” value is -0.00156.
The value for “HMQNLSELAYVNLRDALMQGQMKPGEELPLRPISRSFGISATPMREALLRLVTESALEMDSRGRISVP” was -0.341; that for “HMKTMSLSSIEKAIYKTKYENEPTSQRLSRIESSVFGTNFSQDSESERIARISSAINAQKSAK” was 0.125.
The value for “HMTNTWNNIVERNDLFFKKFTNTPFNGKIETYWPNGNLKETGIITDGKKDNLWEYYYENGNPKEVEF” was -0.397.
The figure for “HMDVPNLVGKTLEEAENELKKLNIRYNVTERADEAPKDTVIEQSPKPYEAMEPGTVVNLVISSGPA” is 0.533; for “HMDEEQIASRRALIMRAAREIMETQGMEALSIRKIAAMIQQTPGIIYHYFSGKEELMLAVVQEGYH” it is 0.111; for “HMDKKEFGKRLKNLRIRNKMSQQAMADSLGYTSRSTINKIEEGINEMSYDKIVRLMELYGLSRPDLGLEPI” it is -0.154.
With “HMKFIPPSLEEARAYFVEKGSSEPEAEKFVNHFDSIGWKVGRARTPMKKWKSAANNWIANNREWNQ”, the “soluble fraction (log2)” value was -0.407.
The figure for “HMSDFSNLNLLELNSSELDLLLRRASSQGLTQMDLLKMARSQGLSEADLIKVKGKIDTSESIKR” is -0.0148.
The value for “HMIGEKLKEIREKTGMNKKEFAQYLGLKYTTYNNYETEAREPASDFLILISTKFDVSIDYLLGLQ” was -0.674; that for “HMDRKFFYEDQYQDYLGEELKVSFFDTDNKKTVRGTLSEVTPHGIKINLEQETQEIPFSSIIQANLI” was 0.201; that for “HMGETRWTYDDFGNILTEKAAPYSATEFLGKTYTYDTDNRYLKTVTDALGRTTTTLSYDKYGNPLSVMD” was 0.101.
With “HMAPRKNIRLLRAAQDKAAAEGDHETVDAIRGQIAALIETLPVQYREEYLLQEKGRENGLKLAIENAAK”, the “soluble fraction (log2)” value came out at 0.423.
With “HMTGQLTEEELKQRQERAMSNPEIQGILSDPVMRQVLQDMSTDPKAAAEHQRNPTIMAKIQKLINAGIVQV”, the “soluble fraction (log2)” value came out at 0.11.
“HMKQISNTDELESMAKNIIQENPDQVSKFKNGNEKLFGWFVGQMMKSTGGTANPKVVNEILKNLLN”: the “soluble fraction (log2)” value came to 0.152.
The value for “HMAHLNYQTVDINALIRHSLQLVSQDAQSRGIALQFTPRPELTTISADPDRLNQVLLNLYLNAMQD” was -0.334; that for “HMNLDELGNRIREQRIKQRLKQQDIANALMLSAQAVSKWERGENAPDISVLPDLVKILGVSVDWLLTGP” was -0.734; that for “HMKFLHLADLHLGKRVNGFSMLEDQAYILRQILTILDDERPDGVLIAGDVYDKPVPPTEAVELLD” was -0.604.
The figure for “HMGQPGNWTSYVFKNSDTEPAKPTSSGPIPSGWNDAPTGVGIWWMSKATIDASTGKAGSWSTPIRVTGED” is 0.0592; for “HMAQLSDMLTYLRKRKGLSQQELANTLKISRSAIGMYETGKREPDLETLEVFADFYNVDMNTLTGKA” it is -0.143.
The figure for “HMGKEWPTPDNVEEWKKLVKKARLWPIQADQAQSEETRERNRKKWELFVAYAKRFGYRAGIGETGKPFVNN” is -0.443.
“HMKTDLQIQQDVMAELKWEPKVNAAHIGVEVKHGVVTLSGHVDSFAEKWNAEQAAKRVAGVKFIAIELDV”: the “soluble fraction (log2)” value was -1.67.
Consider “HMLVDWNYLEGKRGVTTTPLTPSGKARFGDDVVNVLSDGVLVSTGTPVRVLQVLGNRVLVEPLDG”, for which the “soluble fraction (log2)” value was found to be 0.0957.
With “HMRRGKLGMASRLEQIPGIGPKKRKALLKAFGNSIDAIKSAPVEDLMKVKGINLVLAESIKEL”, the “soluble fraction (log2)” value came out at 0.0167.
The value for “HMFEDYNELDEYLETRFIPTYVLLKQRKNANGEIDHFPSIRLQHIMALKLSEAELEHVMNYLKEKNIRVG” was -0.325.
As to “HMRSIVETLTDRELEIFQLIGNGFSTGEIARRLNLSPHTIETHRKNIKDKLGLSSGSELNKQAIQWVLSS”, the “soluble fraction (log2)” value is 0.153.
Take “HMDAKNNPQVMAQIRAILTAKGLSEDEVKTRLKTKNIDVDKMTDQEIIAQRPAIEAIINEMEQEKKQKMG”: the “soluble fraction (log2)” value was 0.252.
The value for “HMNRPQDLGEPYDGQFREHPEAWAFYAAQSPSYRRSASWWVLGAKQEVTRQRRLAALIDASAQGTRIPALT” was -1.09; that for “HMKMPNGYGSITKLSGKRRKPWRVRKTAGWELDAKTQKLKQTYINIGYYETRADAMSALVSYNEDP” was -0.898; that for “HMAPLQDENGDLTFSYNGKTYTVNVNSEEDRNSFAEDFNKENGKKFSWFKERAGLQHYVFYDTEM” was -0.19.
“HMRRTEKEIEQDVMRAIATIISEKGISSVTIKEVSNLSKTDVIVLERRFKNDEGLIKAYTSQ”: the “soluble fraction (log2)” value was -0.166.
Regarding “HMSPKYLELVRWINTQIQEKKLTAGQKMYSENELKEMFGVSRQTVRHAISVLEGEGMIRRVRGSGTYINDN”, the “soluble fraction (log2)” value was -1.83.
With “HMEELPVLHLKHVVVEGESLWKLAEQYLNDGTRWQEIYMLNRENISNPDLIREGQELNIQFLQGE”, the “soluble fraction (log2)” value was -0.574.
The figure for “HMKKRDAEIMLQREFKLTEAIAMVRDRDIQELLPIALYFKVNINQPTAEIRYNLLNIAKSKTQEFIEAFD” is -1.96; for “HMPLLSEWDAALEELWAKLGDVPMDPETERMDAPFLGFPAGTPREDIWHWFDERHSKGVAHLLYG” it is -2.37.
For the sequence “HMEDLAERLDNLSTMYAKMDPVRAAQVLLESKNKSENIEVLKRLKPKSLGLILENMPPREAYDYVSELQ”, the “soluble fraction (log2)” value was 0.0712.
In the case of “HMKEADVRKNEILDAAGILFSEKGYDNTSVTDIMNAVGFAKGTLYHHFKSKEDIMDALIKRQTD”, the “soluble fraction (log2)” value came to 0.219.
The value for “HMYMKGKVKWFDSKKGYGFITSENGKEIFVHFSGIAAKGFKSLNEGQTVEFEVANGAKGEQAVNVTV” was -0.804; that for “HMGVKIELNENEQAIFAAMQKQVEAVLPDLRAQFADMSNKAWDNSVKTLTKNNLLKVSKEAEILFIRL” was -0.718.
For “HMGLVLIDSYNDIGSAKLITNKIRNLGLIFEENENKINVFAGPFEKNDINLKIDFLIRNGYTNAQLY”, the “soluble fraction (log2)” value was -2.48.
As to “HMLSTGQLIRYYRKRAGMTQAELAEEVEMSEPGIRNYELGNRTPSKAQLSAIARGLGIEPEALI”, the “soluble fraction (log2)” value was -0.48.
Take “HMPGPAEMPGWITARAKKLGGQITPEAARALAAEMGSDTEQASREIEKLLTYVDYRRPVEEEDVALLTA”: the “soluble fraction (log2)” value is -0.0046.
For the sequence “HMVGEYTVKKGDTLWKIAGQTLGSPLRYAEIYELNKDVIEEAALGRGKKNSSNGHWIFQGTVLKIPA”, the “soluble fraction (log2)” value was -0.00974.
The value for “HMPNTLAGIERYLGSGMVKGIGPVYASRLVSAFGTAVFDVIEQTPERLREIDGIGEKRTRKITSGWADQ” was -0.127.

Values taken from the domain aggregation screens of Martell et al. (2025).
